Measurements published in PMC3312907, “Monoclonal Antibodies to Meningococcal Factor H Binding Protein with Overlapping Epitopes and Discordant Functional Activity” (PLoS ONE, 2012).

B1: chimeric human IgG1 mouse anti-fHbp JAR 1 mAb (antibody, V domains shown)
VH: QVQLQQPGTELVMPGASVKLSCKASGYTFTNYWMHWVKQRPGQGLEWIGEIDPSDNYTKYNQKFKGKATLTVHTSSTTAYIQLSSLTSEDSAVYYCARGEVTTYLDYWGQGTTLIVSS
VL: DILMTQSPSSLTVSAGEKVTMSCKSSQSLLASDNQNNFLAWHQQKPGQSPKMLIIWASTRVSGVPDRFIGSGSGTDFTLTINSVQAEDLAVYYCQQSYSAPLTFGAGTKLELQ
notes: also called chimeric JAR 1; chimeric human IgG1 JAR 1; source: transfected CHO cells, serum-free medium, purified from supernatant (HiTrap protein G)
B2: chimeric human IgG1 mouse anti-fHbp mAb502 (antibody, V domains shown)
VH: EVQLQESGPGLAKPSQTLSLTCSVTGYSITSDFWNWIRKFPGNKLEYMGYISYSGSTDYNPSLKSRISITRDTSKNQYYLQLNSVTAEDTATYYCARYFGSSYAMDHWGQGTSVTVSS
VL: DIQMTQSPASLSASVGETVTITCRASGNIHNYLAWYQQKQGKSPQLLVYTAKTLAEGVPSRFSGSGSGTQFSLKINSLQPEDFGSYYCQHFWSTPWTFGGGTKLEIK
notes: also called chimeric mAb502; chimeric human IgG1 mAb502; source: transfected CHO cells, serum-free medium, purified from supernatant (HiTrap protein G)

How the values were obtained:
[1] = target: murine anti-fHbp mAb JAR 1 (IgG3); test: ELISA; details: mAb at 10 µg/ml (highest point of titration); wells coated with 2 µg/ml of wild-type or mutant fHbp; parent: est. 2.4; read off a plot
[2] = target: murine anti-fHbp mAb502 (IgG2a); test: ELISA; details: wells coated with 2 µg/ml of wild-type or mutant fHbp, read off a plot
[3] = target: murine anti-fHbp mAb JAR 5 (IgG2b); test: ELISA; details: mAb at 10 µg/ml (highest point of titration); wells coated with 2 µg/ml of wild-type or mutant fHbp; parent: est. 3.7; read off a plot
[4] = target: recombinant factor H binding protein (fHbp) ID 1 (Neisseria meningitidis (strain MC58)) (UniProt Q9JXV4); test: ELISA; competitive inhibition: wells coated with 2 µg/ml fHbp ID 1; dilutions of the first mAb together with 1 µg/ml of the second mAb, 37°C, 2 h; detection with subclass-specific (IgG3 or IgG2a) secondary antibody
[5] = target: T1, recombinant factor H binding protein (fHbp) ID 1 (Neisseria meningitidis (strain MC58), UniProt Q9JXV4); test: ELISA; wells coated with 2 µg/ml recombinant fHbp in PBS overnight at 4°C; dilutions of mAb overnight at 4°C; bound mAb detected with anti-mouse or anti-human IgG (Fc specific)-alkaline phosphatase (legend of Figure 5: anti-human kappa light chain); details: both partners purified
T1 construct: also called wild-type (WT) fHbp ID 1; rfHbp; source: E. coli (pET21b), purified (Ni-NTA agarose)

[6] = target: T2, fHbp ID 1 on live bacteria of N. meningitidis group B strain H44/76 (Neisseria meningitidis (endogenous in …, UniProt Q9JXV4)); test: flow cytometry on cells; as a6, for the anti-fHbp mAb added at 2 or 50 µg/ml for 30 min at room temperature to live bacteria; read-out is bound fH; details: one partner purified
T2 construct: source: endogenous, live bacteria of group B strain H44/76

[7] = mAb at 10 µg/ml (highest point of titration), parent: est. 3.6

Molecule | response [1] | response [2, 7] | response ([2]; mAb at about 0.08 µg/ml (point read from the log x axis, est.), parent: est. 3.7) | response [3] | percent inhibition of mAb502 binding to fHbp [4] | binding result [5] | binding result [6]
recombinant factor H binding protein (fHbp) ID 1 (from UniProt Q9JXV4) D142A | 2.3 OD 405nm | 3.5 OD 405nm | 1.4 OD 405nm | 3.6 OD 405nm | – | – | –
recombinant factor H binding protein (fHbp) ID 1 (from UniProt Q9JXV4) R204A | 0.15 OD 405nm | 0.3 OD 405nm | – | 3.4 OD 405nm | – | – | –
recombinant factor H binding protein (fHbp) ID 1 (from UniProt Q9JXV4) R204H | 2.2 OD 405nm | 0.3 OD 405nm | – | 3.6 OD 405nm | – | – | –
recombinant factor H binding protein (fHbp) ID 1 (from UniProt Q9JXV4) K143A | 1.3 OD 405nm | 3.6 OD 405nm | – | 3.8 OD 405nm | – | – | –
murine anti-fHbp mAb JAR 1 (IgG3) (antibody) | – | – | – | – | > 90% | – | –
B1 | – | – | – | – | – | binds | binds
B2 | – | – | – | – | – | binds | binds
